A short description of this data set: amyloid nucleation score (Sup35N fusion, yeast selection) (log enrichment); library NNK3; higher = more nucleation; inactive = no reads after selection. In short, it runs like this: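 For the nucleation score, DiMSum gave the log enrichment of output over input reads, centred on the mode score of non-aggregating sequences. Psi-negative yeast expressing Sup35N fused to peptides of 20 random codons were induced with 100 μM copper sulfate for 24 hours and grown 7 days at 30°C on medium lacking adenine and uracil. Input and output plasmid inserts were Illumina-sequenced, and sequences with under 100 input reads were excluded.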

± gives the uncertainty stated by the source.

Turning to IAWRQAGDFITLNLSIWMRL, the amyloid nucleation score entry is “inactive”. The result for FSNDFFCLCPS reads “inactive”; that for LIPIW, “inactive”; that for LQSVMFLPICFLLT, “inactive”. For TKSAYRWSRKVRNEFQGSMG, the amyloid nucleation score result is “inactive”. For the substance TENQS, the amyloid nucleation score entry was “inactive”. The same measure for TSKLRQCGFL: “inactive”; for IKAYSRRSLSSSG: “inactive”. The result for YSNVNALISSTSLYLCCCML reads 0.644 ± 0.23.

Turning to LNPNYRNAYLNYRVLFY, the amyloid nucleation score entry is “inactive”. The substance KVFPFEVEVLFFHGGDMSCG had an amyloid nucleation score of -0.121 ± 0.36. QLSVNMYDCYDNGEHLRIGG: the amyloid nucleation score entry is “inactive”. YIYLTQGTARNIDYT gave an amyloid nucleation score of 0.047 ± 0.43. The result for FYSFWYPFTVSAMRLYWCSW reads “inactive”; that for QKLVMTYPVIVHNMVNLERY, 1.13 ± 0.074. Regarding KFFQTSLRTAIRLWKSAISC, the amyloid nucleation score result was “inactive”. The same measure for LCFWNGLTTIDYYSFMGLLS: 0.409 ± 0.15; for PYGNSELYSERGERAHCNLG: “inactive”; for LVLYYCVTG: “inactive”. On to EVEIRWPCLKVVFLFLVH, for which the amyloid nucleation score entry was “inactive”. The result for CELGDSGVIDDKIICVCYYL reads “inactive”; that for SFRNKLELFQLVCMHNEPGC, “inactive”; that for ACCIAGL, “inactive”. The same measure for CFNYRLDFTQNWYMLIQCCH: 0.867 ± 0.24; for GNSAYK: “inactive”. As for GFSGPSLGQIAG, the amyloid nucleation score result was “inactive”. For YYYSMVTTLRGAISILRNPA, the amyloid nucleation score result is “inactive”. Regarding ASGSHSVT, the amyloid nucleation score result was “inactive”. The substance SLGQLYDLGSRW came in with an amyloid nucleation score of -0.805 ± 1.7. As for VDLWYIFGPSPYATCFVLLV, the amyloid nucleation score entry was “inactive”.

Consider YVSIWNHDADRGRC, for which the amyloid nucleation score entry is “inactive”. The same measure for LRWSGFIGDAYGYLFKEWGQ: 0.145 ± 0.33.

For the substance IWISLGAMIMFMVN, the amyloid nucleation score result is “inactive”. As to RYVGAVWYYTMNIVNYNSFI, the amyloid nucleation score was determined as 1.7 ± 0.06. In the case of IARFGVKSVGWSFAENMSST, the amyloid nucleation score entry was “inactive”. The result for SFLDNCPRGNRGQVGSEPVS reads “inactive”; that for QVCPTLWYEVMCLN, “inactive”. Take LNLWPNSD: the amyloid nucleation score entry was “inactive”. The same measure for IKMNNDGSMILWSLSSPTDL: “inactive”.

Take LKNFKSSAHLMQMIVLNFAY: the amyloid nucleation score result is “inactive”. The result for SISCKKVGGSKASQRPYKA reads “inactive”; that for LDERCLLVGMAYMLVCY, “inactive”. In turn, SYYITLHWIVASGSYSADNT yielded an amyloid nucleation score of 0.454 ± 0.14.

Consider VQFFNDRSLVDSQIGRLLLP, for which the amyloid nucleation score entry is “inactive”. The same measure for RRWSLRWNHLM: “inactive”; for DSSDVVSVLVLSEMCAALVT: “inactive”; for VVDCWSVKATSDSYDGMWGV: “inactive”. The result for CVYYSRKG reads 1.95 ± 0.073.

GGKHPGMCFHCEWLGYWFTS: the amyloid nucleation score entry is “inactive”.

In the case of LLLSLGVLCYP, the amyloid nucleation score entry was “inactive”. Turning to QWKKWLDTACKWVGVGGTIR, the amyloid nucleation score result is “inactive”. The result for GCAKVKLI reads -0.292 ± 0.75.

As to RTAVVWV, the amyloid nucleation score entry was “inactive”.

On to SRTVKSRGSAQQDCGRVLRD, for which the amyloid nucleation score result was “inactive”. In the case of TRWSVFKLRADDRNMQASKS, the amyloid nucleation score entry is “inactive”. VVSRVMTGSHHVRQFRM: the amyloid nucleation score result was “inactive”.

Consider SALGSSTSFYNGMRRPFRYH, for which the amyloid nucleation score result is “inactive”. With ILYDDSCLFVTASWTSYVFV, the amyloid nucleation score is 1.4 ± 0.073. The same measure for SVNPAKHVMCKRAPGCGKLH: “inactive”. The result for CQRGTVADAPYLQRRLGLLY reads “inactive”; that for AGGSLWKAL, “inactive”. The result for SRCRMIGMVISWNG reads “inactive”.

For the substance LCFFV, the amyloid nucleation score result is “inactive”. The result for LCWVNQVREMGRWNTGVQSG reads “inactive”; that for GIMMSD, “inactive”; that for DSFVLSTTFLSSGTSAACLG, -1.32 ± 2.5. The result for FSCMTADSNSGIVRVR reads “inactive”; that for IIRISEFDSCGQTAW, “inactive”. The result for HVVFNIIFWYSGRIGLSDIT reads 1.94 ± 0.084. Consider RADPTRITSPSLLTIMKTHE, for which the amyloid nucleation score entry is “inactive”. The result for QSFGMFAVYRAWVSIL reads “inactive”. The same measure for LFRLACVTNMRSNLLSYRRC: 0.131 ± 0.64. The same measure for TLASTGYFFR: “inactive”. Take SIQYIYFDASQMRIENSRSL: the amyloid nucleation score amounted to 2.37 ± 0.059.

Regarding GGLVSCLSAARIGHHGASLE, the amyloid nucleation score entry was “inactive”. The same measure for WPLTCCDFSPSDSAIGRM: “inactive”; for KVVNGVRCKKSQGLI: “inactive”; for TYRSTLSVSMAVRGSEMLD: -0.085 ± 1. For FSLDPTIVMSVIARDSMSML, the amyloid nucleation score entry was “inactive”.

Take GSTGVIDDLSKVHCGGMCVD: the amyloid nucleation score entry is “inactive”. As for PLDQCPKVPSLVASLQSESR, the amyloid nucleation score result was “inactive”. Turning to LERHL, the amyloid nucleation score result was “inactive”. The result for AWWMLN reads “inactive”; that for LCCKIHSRTKMRRGSC, “inactive”; that for HGDVCMNMGYNRT, “inactive”. Consider RTGPTRALRVLHLDAMDALV, for which the amyloid nucleation score result is “inactive”. Regarding VIVICFIFLMNVIPIQACWT, the amyloid nucleation score result is “inactive”. As for RYVQLCADYSHGF, the amyloid nucleation score result was “inactive”.

For SGIAGECFAM, the amyloid nucleation score result is “inactive”. As to FYKAFIL, the amyloid nucleation score result is “inactive”.

As to YRTRESGLY, the amyloid nucleation score was -0.425 ± 1.1. Substance VFLSWCAGSKGFSGVCRI registered an amyloid nucleation score of 0.6 ± 0.2. As to IWVGRTDFWFWHVTGEDCLG, the amyloid nucleation score entry was “inactive”.

With FYFPLYDL, the amyloid nucleation score entry is “inactive”. On to NTVTHR, for which the amyloid nucleation score result was “inactive”. For SISAALWAFL, the amyloid nucleation score entry was “inactive”.

As for TGLNIILLLCFMMSLGES, the amyloid nucleation score result was “inactive”. With NRMNKSEDGTSKCFESDRWG, the amyloid nucleation score entry is “inactive”. The result for CKGLIFISSFANVVLN reads 1.52 ± 0.12; that for CAHKSGQACKHGVF, 0.533 ± 0.4; that for VRAGTIYRGVYHFCLFCMGE, 0.828 ± 0.15. Take LAPRSMGIATSSHGSSNVIG: the amyloid nucleation score was -0.387 ± 0.88. The result for LFGYSNSRRHMIGMQSY reads “inactive”; that for LRGCLKSVIDTSLG, “inactive”. Consider FFQDQFVDWLDYTVLRI, for which the amyloid nucleation score entry was “inactive”. As to SAKCTKEFYSNASKYFNSYL, the amyloid nucleation score entry was “inactive”. Take VLFFSAYWMFQKVGVLVPSK: the amyloid nucleation score result was “inactive”. YCPRLRVRVCWFGTSSLDFQ showed an amyloid nucleation score of 0.862 ± 0.16. The same measure for YFKNGNALCKAFKKRISRKD: “inactive”. The same measure for VATHTSASHLRS: “inactive”; for TDKAICISLFRVIRLYAYAK: “inactive”; for LPILHSRPVIQETL: “inactive”. In the case of SVPMVLFRASLVMYGLMLSQ, the amyloid nucleation score stood at 0.835 ± 0.12. The same measure for SILGFT: “inactive”; for STIKFTGFVYFSN: “inactive”. The result for TAIVIMTYYTIRGFRTIGMW reads -0.174 ± 0.22.

Consider SYLNRPWD, for which the amyloid nucleation score entry was “inactive”. The result for SIFPF reads “inactive”; that for NLSALMLLLQDRDRAISRPR, 0.919 ± 0.21. For SGPGRSACSFYNAIFMRRFQ, the amyloid nucleation score result was “inactive”. In the case of LWTALK, the amyloid nucleation score result was “inactive”. As to RIEYVVPITPM, the amyloid nucleation score result was “inactive”. Regarding TAKSSGINDRLTQRI, the amyloid nucleation score entry was “inactive”. NWLLRYLYCRTNFGCCYR: the amyloid nucleation score is -0.552 ± 0.7. In the case of IKFSEWMNVGIVWWHYLISG, the amyloid nucleation score entry was “inactive”. The same measure for DIVLFLG: “inactive”; for DEEQF: -0.143 ± 0.34; for VAFTLIVRFCS: “inactive”. The same measure for NFQNSVLFNMV: “inactive”; for RDEASLSYMSPCRYDYCNCF: 0.003 ± 1; for LVVCTSAFIGMTDY: -0.532 ± 0.8. The result for YKSDSLLRSSLLTELTPIHF reads “inactive”; that for FGVTTEF, 1.23 ± 0.14; that for RHNARRWCTVSC, “inactive”.

Source of the values: the supplement of paper PMC12042874.
